Assays:
[1] = target: T1, MutL WT (Escherichia coli, UniProt P23367 1-615); test: cryo-EM structure (3.7 A); 3 mM AMPPNP, 5 mM Mg2+; FA: 20 mM HEPES pH 7.5, 150 mM NaCl, 5 mM MgCl2, 0.08% Tween 20, 20% glycerol, 2 mM DTT, 5 nM DNA, 25 C; BLI: 25 mM HEPES pH 7.5, 150 mM NaCl, 5 mM MgCl2, 2 mM; settings: protein: recombinant; (HisTrap purified); chain copies: 2; 21 bp duplex, 5' overhang 21 nt on template
[2] = target: T1, MutL WT; test: fluorescence anisotropy; 3 mM ATP (Table 2 gives 0.64 uM); FA: 20 mM HEPES pH 7.5, 150 mM NaCl, 5 mM MgCl2, 0.08% Tween 20, 20% glycerol, 2 mM DTT, 5 nM DNA, 25 C; BLI: 25 mM HEPES pH 7.5, 150 mM NaCl, 5 mM MgCl2, 2 mM; settings: protein: recombinant; (HisTrap purified); chain copies: 2; label: 5'-FAM on primer S8; 15 bp duplex, 5' overhang 16 nt on template (recessed primer 3' end)
[3] = target: T1, MutL WT; test: fluorescence anisotropy; AMPPNP (3 mM; Fig 3C legend 1 mM); FA: 20 mM HEPES pH 7.5, 150 mM NaCl, 5 mM MgCl2, 0.08% Tween 20, 20% glycerol, 2 mM DTT, 5 nM DNA, 25 C; BLI: 25 mM HEPES pH 7.5, 150 mM NaCl, 5 mM MgCl2, 2 mM; settings: protein: recombinant; (HisTrap purified); chain copies: 2; label: 5'-FAM on primer S8; 15 bp duplex, 5' overhang 16 nt on template (recessed primer 3' end)
[4] = target: MutL H270A (Escherichia coli, UniProt P23367 1-615, H270A); test: fluorescence anisotropy; AMPPNP (1 mM, Fig 3C); FA: 20 mM HEPES pH 7.5, 150 mM NaCl, 5 mM MgCl2, 0.08% Tween 20, 20% glycerol, 2 mM DTT, 5 nM DNA, 25 C; BLI: 25 mM HEPES pH 7.5, 150 mM NaCl, 5 mM MgCl2, 2 mM; settings: protein: recombinant; (HisTrap purified); chain copies: 2; label: 5'-FAM on primer S8; 15 bp duplex, 5' overhang 16 nt on template (recessed primer 3' end)
[5] = target: MutL H270A+H319A (Escherichia coli, UniProt P23367 1-615, H270A;H319A); test: as above; settings: protein: recombinant; (HisTrap purified); chain copies: 2; label: 5'-FAM on primer S8; 15 bp duplex, 5' overhang 16 nt on template (recessed primer 3' end)
[6] = target: MutL H319A (Escherichia coli, UniProt P23367 1-615, H319A); test: as above; settings: protein: recombinant; (HisTrap purified); chain copies: 2; label: 5'-FAM on primer S8; 15 bp duplex, 5' overhang 16 nt on template (recessed primer 3' end)
[7] = target: T1, MutL WT; test: fluorescence anisotropy; 3 mM ATP; FA: 20 mM HEPES pH 7.5, 150 mM NaCl, 5 mM MgCl2, 0.08% Tween 20, 20% glycerol, 2 mM DTT, 5 nM DNA, 25 C; BLI: 25 mM HEPES pH 7.5, 150 mM NaCl, 5 mM MgCl2, 2 mM; settings: protein: recombinant, (HisTrap purified), chain copies: 2

B1: cryo-EM 3' resected DNA (dsDNA)
DNA 1: AAACAGGCTTAGGCTGGAGGATCAGCTTAGCTTAGAGTCATC
DNA 2: GATGACTCTAAGCTAAGCTGA
- binding result [1]: binds

B2: 3' resected primer/template junction (dsDNA)
DNA 1: AAGTGTCTGTCGTTTTAAGGACGAAGGACTC
DNA 2: GAGTCCTTCGTCCTT
- Kd [2]: 650 ± 320 nM
- Kd [3]: 290 ± 120 nM
- Kd [4]: 1590 ± 230 nM
- binding result [5]: no binding
- Kd [6]: 4510 ± 1180 nM

B3: 5' resected primer/template junction (dsDNA)
DNA 1: B2 DNA 1
DNA 2: AAAACGACAGACACTT
- binding result ([7]; label: 3'-FAM on primer S7): no binding

B4: blunt-ended DNA (dsDNA)
DNA 1: AAGTGTCTGTCGTTTT
DNA 2: AAAACGACAGACACTT
- binding result ([7]; label: 3'-FAM on S7): no binding
